Experimental data as given in PMC11783452 (iScience, 2024).

Molecular target: prefusion-stabilized MERS-CoV spike protein, MERS S-2P (MERS-CoV, England1 (isolate United …, UniProt K9N5Q8, stabilised))
Assay: negative-stain EM

B1: Anti-MERS-CoV S antibody CDC2-A2, Fab (Fab, V domains shown)
VH: QVQLVESGGGLVKPGGSLRLSCAASGFTFSDYYMSWIRQAPGKGLEWVSYISSSGSTIYYADSVKGRFTISRDNAKNSLYLQMNSLRAEDTAVYYCARVGLGSGWYDWFDPWGQGTLVTVSS
VL: QSALTQPPSVSGAPGQRVTISCTGSSSNIGASYDVHWYQHLPGTAPKLLIYGNTNRPSGVPDRFSGSKSGTSASLAITGLQAEDEADYYCQSYDSSLSGVVFSGGTKLTVL
Does B1 bind?
Result: binds
